T1: APBA2_2, Q99767
T1 sequence (Q99767 654-744, limits assumed, looked up): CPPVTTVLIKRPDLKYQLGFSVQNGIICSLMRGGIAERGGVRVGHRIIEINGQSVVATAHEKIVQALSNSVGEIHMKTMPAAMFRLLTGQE

T2: ARHGAP21, Q5T5U3
T2 sequence (Q5T5U3 45-169, limits assumed, looked up): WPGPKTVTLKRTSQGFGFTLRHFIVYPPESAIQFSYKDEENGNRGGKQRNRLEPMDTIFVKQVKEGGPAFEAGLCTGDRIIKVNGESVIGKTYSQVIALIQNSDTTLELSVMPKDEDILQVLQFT

T3: HTRA4, P83105
T3 sequence (P83105 378-476, limits assumed, looked up): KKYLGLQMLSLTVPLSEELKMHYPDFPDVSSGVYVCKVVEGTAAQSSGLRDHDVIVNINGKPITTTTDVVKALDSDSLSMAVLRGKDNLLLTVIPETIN

T4: LIN7C, Q9NUP9
T4 sequence (Q9NUP9 88-185, limits assumed, looked up): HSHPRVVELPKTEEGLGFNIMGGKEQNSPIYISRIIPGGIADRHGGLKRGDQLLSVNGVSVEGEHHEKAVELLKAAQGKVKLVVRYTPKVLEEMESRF

T5: LNX2_2, Q8N448
T5 sequence (Q8N448 334-432, limits assumed, looked up): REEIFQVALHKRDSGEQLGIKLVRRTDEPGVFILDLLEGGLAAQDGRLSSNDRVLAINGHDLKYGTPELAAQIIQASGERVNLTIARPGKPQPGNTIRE

T6: PDZRN3_1, Q9UPQ7
T6 sequence (Q9UPQ7 244-349, limits assumed, looked up): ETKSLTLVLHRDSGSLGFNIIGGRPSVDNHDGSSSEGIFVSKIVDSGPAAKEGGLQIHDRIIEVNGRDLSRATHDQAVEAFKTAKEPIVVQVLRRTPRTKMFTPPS

B1: EFNB3, Q15768 (peptide)
chain: QSPPNIYYKV

molecular target: T1, APBA2_2, Q99767; experiment: holdup assay; parameters: key: below the threshold = too weak to quantify, mostly under pKd 3.1 to 4; details: plain residues with an end cap or a label only (N-terminal biotin on a linker: ado-ado)

Binder | pKd
B1 | below the threshold

molecular target: T2, ARHGAP21, Q5T5U3; experiment: holdup assay; parameters: key: below the threshold = too weak to quantify, mostly under pKd 3.1 to 4; details: plain residues with an end cap or a label only (N-terminal biotin on a linker: ado-ado)

Binder | pKd
B1 | below the threshold

molecular target: DLG1_2, Q12959; experiment: holdup assay; parameters: key: below the threshold = too weak to quantify, mostly under pKd 3.1 to 4; details: plain residues with an end cap or a label only (N-terminal biotin on a linker: ado-ado)
Sequence (Q12959 314-412): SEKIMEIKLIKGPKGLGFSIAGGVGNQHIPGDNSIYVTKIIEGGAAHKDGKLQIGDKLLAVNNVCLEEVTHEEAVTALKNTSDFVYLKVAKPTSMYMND

Binder | pKd
B1 | below the threshold

molecular target: DLG2_3, Q15700; experiment: holdup assay; parameters: key: below the threshold = too weak to quantify, mostly under pKd 3.1 to 4; details: plain residues with an end cap or a label only (N-terminal biotin on a linker: ado-ado)

Binder | pKd
B1 | below the threshold

molecular target: DLG4_1, P78352; experiment: holdup assay; parameters: key: below the threshold = too weak to quantify, mostly under pKd 3.1 to 4; details: plain residues with an end cap or a label only (N-terminal biotin on a linker: ado-ado)
Sequence (P78352 62-152): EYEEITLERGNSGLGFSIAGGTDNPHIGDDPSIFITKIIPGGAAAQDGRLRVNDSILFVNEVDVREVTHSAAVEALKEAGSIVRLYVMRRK

Binder | pKd
B1 | below the threshold

molecular target: DLG4_2, P78352; experiment: holdup assay; parameters: key: below the threshold = too weak to quantify, mostly under pKd 3.1 to 4; details: plain residues with an end cap or a label only (N-terminal biotin on a linker: ado-ado)
Sequence (P78352 155-259): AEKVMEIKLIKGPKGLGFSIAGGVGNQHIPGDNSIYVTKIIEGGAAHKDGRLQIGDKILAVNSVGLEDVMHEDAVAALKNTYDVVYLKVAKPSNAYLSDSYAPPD

Binder | pKd
B1 | 3.54

molecular target: DLG4_3, P78352; experiment: holdup assay; parameters: key: below the threshold = too weak to quantify, mostly under pKd 3.1 to 4; details: plain residues with an end cap or a label only (N-terminal biotin on a linker: ado-ado)
Sequence (P78352 306-403): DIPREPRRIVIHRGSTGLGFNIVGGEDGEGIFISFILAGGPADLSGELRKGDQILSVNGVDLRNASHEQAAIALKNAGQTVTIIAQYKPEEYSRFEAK

Binder | pKd
B1 | below the threshold

molecular target: FRMPD3, Q5JV73; experiment: holdup assay; parameters: key: below the threshold = too weak to quantify, mostly under pKd 3.1 to 4; details: plain residues with an end cap or a label only (N-terminal biotin on a linker: ado-ado)
Sequence (Q5JV73 12-100): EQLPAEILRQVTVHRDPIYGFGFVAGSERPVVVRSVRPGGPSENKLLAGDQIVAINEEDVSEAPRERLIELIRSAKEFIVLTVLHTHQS

Binder | pKd
B1 | below the threshold

molecular target: FRMPD4, Q14CM0; experiment: holdup assay; parameters: key: below the threshold = too weak to quantify, mostly under pKd 3.1 to 4; details: plain residues with an end cap or a label only (N-terminal biotin on a linker: ado-ado)
Sequence (Q14CM0 67-160): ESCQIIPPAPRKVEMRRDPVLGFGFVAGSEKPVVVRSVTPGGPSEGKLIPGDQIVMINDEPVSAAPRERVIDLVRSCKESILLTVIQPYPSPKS

Binder | pKd
B1 | 4.01

molecular target: GOPC, Q9HD26; experiment: holdup assay; parameters: key: below the threshold = too weak to quantify, mostly under pKd 3.1 to 4; details: plain residues with an end cap or a label only (N-terminal biotin on a linker: ado-ado)

Binder | pKd
B1 | 3.51

molecular target: GORASP1, Q9BQQ3; experiment: holdup assay; parameters: key: below the threshold = too weak to quantify, mostly under pKd 3.1 to 4; details: plain residues with an end cap or a label only (N-terminal biotin on a linker: ado-ado)
Sequence (Q9BQQ3 1-208): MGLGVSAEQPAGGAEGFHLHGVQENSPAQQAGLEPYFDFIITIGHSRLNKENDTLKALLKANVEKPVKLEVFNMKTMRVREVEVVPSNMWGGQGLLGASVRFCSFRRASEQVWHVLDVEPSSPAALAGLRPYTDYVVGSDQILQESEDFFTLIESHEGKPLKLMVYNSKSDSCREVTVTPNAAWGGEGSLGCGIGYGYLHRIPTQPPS

Binder | pKd
B1 | 4.75

molecular target: GRASP, Q7Z6J2; experiment: holdup assay; parameters: key: below the threshold = too weak to quantify, mostly under pKd 3.1 to 4; details: plain residues with an end cap or a label only (N-terminal biotin on a linker: ado-ado)
Sequence (Q7Z6J2 96-193): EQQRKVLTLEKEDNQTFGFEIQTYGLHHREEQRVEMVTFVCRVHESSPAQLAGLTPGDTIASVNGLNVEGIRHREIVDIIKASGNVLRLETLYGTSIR

Binder | pKd
B1 | 3.57

molecular target: GRIP2_4, Q9C0E4; experiment: holdup assay; parameters: key: below the threshold = too weak to quantify, mostly under pKd 3.1 to 4; details: plain residues with an end cap or a label only (N-terminal biotin on a linker: ado-ado)
Sequence (Q9C0E4 446-548): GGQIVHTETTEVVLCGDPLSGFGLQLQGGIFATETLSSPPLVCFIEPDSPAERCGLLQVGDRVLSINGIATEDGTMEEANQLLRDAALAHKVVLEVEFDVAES

Binder | pKd
B1 | below the threshold

molecular target: GRIP2_7, Q9C0E4; experiment: holdup assay; parameters: key: below the threshold = too weak to quantify, mostly under pKd 3.1 to 4; details: plain residues with an end cap or a label only (N-terminal biotin on a linker: ado-ado)
Sequence (Q9C0E4 934-1023): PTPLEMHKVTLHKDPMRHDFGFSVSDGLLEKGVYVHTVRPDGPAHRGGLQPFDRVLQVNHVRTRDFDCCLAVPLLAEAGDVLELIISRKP

Binder | pKd
B1 | 4.41

molecular target: HTRA1, Q92743; experiment: holdup assay; parameters: key: below the threshold = too weak to quantify, mostly under pKd 3.1 to 4; details: plain residues with an end cap or a label only (N-terminal biotin on a linker: ado-ado)
Sequence (Q92743 360-477): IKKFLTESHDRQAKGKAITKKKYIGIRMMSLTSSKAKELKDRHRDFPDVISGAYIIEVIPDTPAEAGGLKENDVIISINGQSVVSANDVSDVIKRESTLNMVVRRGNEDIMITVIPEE

Binder | pKd
B1 | 4.49

molecular target: T3, HTRA4, P83105; experiment: holdup assay; parameters: key: below the threshold = too weak to quantify, mostly under pKd 3.1 to 4; details: plain residues with an end cap or a label only (N-terminal biotin on a linker: ado-ado)

Binder | pKd
B1 | below the threshold

molecular target: IL16_3, Q14005; experiment: holdup assay; parameters: key: below the threshold = too weak to quantify, mostly under pKd 3.1 to 4; details: plain residues with an end cap or a label only (N-terminal biotin on a linker: ado-ado)
Sequence (Q14005 1107-1207): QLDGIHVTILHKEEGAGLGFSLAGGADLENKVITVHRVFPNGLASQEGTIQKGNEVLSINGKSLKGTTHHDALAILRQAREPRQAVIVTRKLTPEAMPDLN

Binder | pKd
B1 | below the threshold

molecular target: IL16_4, Q14005; experiment: holdup assay; parameters: key: below the threshold = too weak to quantify, mostly under pKd 3.1 to 4; details: plain residues with an end cap or a label only (N-terminal biotin on a linker: ado-ado)
Sequence (Q14005 1229-1329): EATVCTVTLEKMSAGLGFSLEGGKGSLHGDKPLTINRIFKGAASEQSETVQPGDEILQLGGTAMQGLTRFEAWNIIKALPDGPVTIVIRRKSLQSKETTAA

Binder | pKd
B1 | 3.76

molecular target: Inadl_4, Q8NI35; experiment: holdup assay; parameters: key: below the threshold = too weak to quantify, mostly under pKd 3.1 to 4; details: plain residues with an end cap or a label only (N-terminal biotin on a linker: ado-ado)
Sequence (Q8NI35 547-651): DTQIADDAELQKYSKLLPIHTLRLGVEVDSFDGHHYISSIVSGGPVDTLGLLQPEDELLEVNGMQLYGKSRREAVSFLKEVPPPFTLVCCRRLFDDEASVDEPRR

Binder | pKd
B1 | 3.51

molecular target: Inadl_5, Q8NI35; experiment: holdup assay; parameters: key: below the threshold = too weak to quantify, mostly under pKd 3.1 to 4; details: plain residues with an end cap or a label only (N-terminal biotin on a linker: ado-ado)
Sequence (Q8NI35 673-780): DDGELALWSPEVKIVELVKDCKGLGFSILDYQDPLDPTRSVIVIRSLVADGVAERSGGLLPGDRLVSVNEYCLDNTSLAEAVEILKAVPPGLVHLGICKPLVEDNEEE

Binder | pKd
B1 | below the threshold

molecular target: Inadl_8, Q8NI35; experiment: holdup assay; parameters: key: below the threshold = too weak to quantify, mostly under pKd 3.1 to 4; details: plain residues with an end cap or a label only (N-terminal biotin on a linker: ado-ado)
Sequence (Q8NI35 1425-1530): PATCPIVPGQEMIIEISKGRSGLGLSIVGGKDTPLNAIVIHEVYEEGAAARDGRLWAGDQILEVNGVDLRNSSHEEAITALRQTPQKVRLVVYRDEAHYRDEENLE

Binder | pKd
B1 | below the threshold

molecular target: LAP2, Q96RT1; experiment: holdup assay; parameters: key: below the threshold = too weak to quantify, mostly under pKd 3.1 to 4; details: plain residues with an end cap or a label only (N-terminal biotin on a linker: ado-ado)
Sequence (Q96RT1 other isoform, or with tags, fused parts or gaps): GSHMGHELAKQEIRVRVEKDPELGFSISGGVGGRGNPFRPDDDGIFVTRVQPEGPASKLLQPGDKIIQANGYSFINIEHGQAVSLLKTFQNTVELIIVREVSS

Binder | pKd
B1 | below the threshold

molecular target: LDB3, O75112; experiment: holdup assay; parameters: key: below the threshold = too weak to quantify, mostly under pKd 3.1 to 4; details: plain residues with an end cap or a label only (N-terminal biotin on a linker: ado-ado)
Sequence (O75112 1-94): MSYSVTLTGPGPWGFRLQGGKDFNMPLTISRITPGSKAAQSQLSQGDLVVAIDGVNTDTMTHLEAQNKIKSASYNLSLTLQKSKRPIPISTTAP

Binder | pKd
B1 | below the threshold

molecular target: T4, LIN7C, Q9NUP9; experiment: holdup assay; parameters: key: below the threshold = too weak to quantify, mostly under pKd 3.1 to 4; details: plain residues with an end cap or a label only (N-terminal biotin on a linker: ado-ado)

Binder | pKd
B1 | below the threshold

molecular target: LNX1_1, Q8TBB1; experiment: holdup assay; parameters: key: below the threshold = too weak to quantify, mostly under pKd 3.1 to 4; details: plain residues with an end cap or a label only (N-terminal biotin on a linker: ado-ado)
Sequence (Q8TBB1 261-371): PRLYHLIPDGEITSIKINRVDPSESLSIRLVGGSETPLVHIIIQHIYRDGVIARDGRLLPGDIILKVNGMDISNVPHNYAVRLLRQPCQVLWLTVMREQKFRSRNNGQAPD

Binder | pKd
B1 | 3.86

molecular target: T5, LNX2_2, Q8N448; experiment: holdup assay; parameters: key: below the threshold = too weak to quantify, mostly under pKd 3.1 to 4; details: plain residues with an end cap or a label only (N-terminal biotin on a linker: ado-ado)

Binder | pKd
B1 | 4.27

molecular target: MAGI1_1, Q96QZ7; experiment: holdup assay; parameters: key: below the threshold = too weak to quantify, mostly under pKd 3.1 to 4; details: plain residues with an end cap or a label only (N-terminal biotin on a linker: ado-ado)
Sequence (Q96QZ7 1-106): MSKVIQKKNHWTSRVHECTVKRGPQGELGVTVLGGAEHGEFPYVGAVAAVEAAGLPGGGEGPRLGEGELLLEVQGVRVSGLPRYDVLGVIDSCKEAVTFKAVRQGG

Binder | pKd
B1 | below the threshold

molecular target: MAGI2_2, Q86UL8; experiment: holdup assay; parameters: key: below the threshold = too weak to quantify, mostly under pKd 3.1 to 4; details: plain residues with an end cap or a label only (N-terminal biotin on a linker: ado-ado)
Sequence (Q86UL8 410-522): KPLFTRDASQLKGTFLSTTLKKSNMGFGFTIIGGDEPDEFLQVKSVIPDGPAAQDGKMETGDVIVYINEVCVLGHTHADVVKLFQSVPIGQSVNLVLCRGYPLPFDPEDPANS

Binder | pKd
B1 | below the threshold

molecular target: MAGI2_3, Q86UL8; experiment: holdup assay; parameters: key: below the threshold = too weak to quantify, mostly under pKd 3.1 to 4; details: plain residues with an end cap or a label only (N-terminal biotin on a linker: ado-ado)
Sequence (Q86UL8 600-682): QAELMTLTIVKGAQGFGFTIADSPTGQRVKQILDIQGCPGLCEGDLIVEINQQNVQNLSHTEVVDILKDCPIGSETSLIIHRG

Binder | pKd
B1 | below the threshold

molecular target: MAGI2_5, Q86UL8; experiment: holdup assay; parameters: key: below the threshold = too weak to quantify, mostly under pKd 3.1 to 4; details: plain residues with an end cap or a label only (N-terminal biotin on a linker: ado-ado)
Sequence (Q86UL8 915-1017): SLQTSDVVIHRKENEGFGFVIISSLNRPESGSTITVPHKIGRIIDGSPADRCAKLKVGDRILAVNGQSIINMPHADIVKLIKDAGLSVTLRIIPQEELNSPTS

Binder | pKd
B1 | below the threshold

molecular target: PDLIM1, O00151; experiment: holdup assay; parameters: key: below the threshold = too weak to quantify, mostly under pKd 3.1 to 4; details: plain residues with an end cap or a label only (N-terminal biotin on a linker: ado-ado)
Sequence (O00151 1-87): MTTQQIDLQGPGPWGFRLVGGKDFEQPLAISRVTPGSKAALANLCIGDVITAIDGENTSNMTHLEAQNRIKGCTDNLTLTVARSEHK

Binder | pKd
B1 | below the threshold

molecular target: T6, PDZRN3_1, Q9UPQ7; experiment: holdup assay; parameters: key: below the threshold = too weak to quantify, mostly under pKd 3.1 to 4; details: plain residues with an end cap or a label only (N-terminal biotin on a linker: ado-ado)

Binder | pKd
B1 | below the threshold

molecular target: TJP1_2, Q07157; experiment: holdup assay; parameters: key: below the threshold = too weak to quantify, mostly under pKd 3.1 to 4; details: plain residues with an end cap or a label only (N-terminal biotin on a linker: ado-ado)
Sequence (Q07157 181-274): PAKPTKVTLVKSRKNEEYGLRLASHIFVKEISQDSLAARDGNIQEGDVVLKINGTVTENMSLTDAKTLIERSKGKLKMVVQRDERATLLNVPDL

Binder | pKd
B1 | below the threshold

Reference: PMC9482650, “Quantitative fragmentomics allow affinity mapping of interactomes” (Nature Communications, 2022)
